Assay results: publication PMC5415106, “Dpb11 may function with RPA and DNA to initiate DNA replication”

How the values were obtained:
[1] = target: TopBP1 full-length (Homo sapiens, UniProt Q92547 1-1522); experiment: EMSA; nearly 50% shifted at 20 nM; EMSA: 1 nM 32P-DNA, 20 mM Tris-HCl pH 7.5, 0.1 mM EDTA, 0.2 mM DTT, 10% glycerol, 40 mg/ml BSA (so in the source), 5 min at 30 C, 0.7% native agarose in 0.5x TBE; GST pull-down: 40 mM Tris-HCl pH 7.5, 100 mM NaCl, 0.1 mM EDTA, 10% glycerol, 0.1% Triton X-100, 1 mM DTT, 0.1 mg/ml BSA, 25 C; settings: protein: recombinant, label: 32P
[2] = target: T1, Dpb11 wild-type (Saccharomyces cerevisiae (budding yeast), UniProt P47027 1-764); experiment: EMSA; nearly 80% bound at 20 nM; EMSA: 1 nM 32P-DNA, 20 mM Tris-HCl pH 7.5, 0.1 mM EDTA, 0.2 mM DTT, 10% glycerol, 40 mg/ml BSA (so in the source), 5 min at 30 C, 0.7% native agarose in 0.5x TBE; GST pull-down: 40 mM Tris-HCl pH 7.5, 100 mM NaCl, 0.1 mM EDTA, 10% glycerol, 0.1% Triton X-100, 1 mM DTT, 0.1 mg/ml BSA, 25 C; settings: protein: recombinant, (nickel column purification), label: 32P
T1 sequence: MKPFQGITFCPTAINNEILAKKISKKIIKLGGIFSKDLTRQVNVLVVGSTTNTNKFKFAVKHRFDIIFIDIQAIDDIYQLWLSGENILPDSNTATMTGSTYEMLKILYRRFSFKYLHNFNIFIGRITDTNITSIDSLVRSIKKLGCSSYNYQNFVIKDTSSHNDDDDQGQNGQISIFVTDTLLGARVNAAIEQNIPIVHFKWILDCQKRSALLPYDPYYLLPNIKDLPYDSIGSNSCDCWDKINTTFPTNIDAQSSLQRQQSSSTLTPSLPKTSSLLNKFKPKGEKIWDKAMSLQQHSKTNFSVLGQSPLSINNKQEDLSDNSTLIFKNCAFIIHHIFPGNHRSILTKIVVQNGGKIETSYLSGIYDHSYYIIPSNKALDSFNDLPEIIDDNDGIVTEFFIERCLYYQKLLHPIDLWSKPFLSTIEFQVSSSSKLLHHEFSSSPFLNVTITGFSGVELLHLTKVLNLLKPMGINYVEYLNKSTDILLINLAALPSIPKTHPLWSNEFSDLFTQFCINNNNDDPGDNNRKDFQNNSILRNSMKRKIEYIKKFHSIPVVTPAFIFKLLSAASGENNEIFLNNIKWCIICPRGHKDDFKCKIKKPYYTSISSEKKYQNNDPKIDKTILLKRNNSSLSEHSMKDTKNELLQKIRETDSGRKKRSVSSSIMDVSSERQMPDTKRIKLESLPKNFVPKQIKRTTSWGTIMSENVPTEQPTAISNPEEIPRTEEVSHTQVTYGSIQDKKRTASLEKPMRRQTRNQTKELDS

[3] = target: T1, Dpb11 wild-type; experiment: EMSA; more than half bound at 40 nM; EMSA: 1 nM 32P-DNA, 20 mM Tris-HCl pH 7.5, 0.1 mM EDTA, 0.2 mM DTT, 10% glycerol, 40 mg/ml BSA (so in the source), 5 min at 30 C, 0.7% native agarose in 0.5x TBE; GST pull-down: 40 mM Tris-HCl pH 7.5, 100 mM NaCl, 0.1 mM EDTA, 10% glycerol, 0.1% Triton X-100, 1 mM DTT, 0.1 mg/ml BSA, 25 C; settings: protein: recombinant; (nickel column purification); label: 32P
[4] = target: T1, Dpb11 wild-type; experiment: EMSA; 80 nM required to bind more than half; EMSA: 1 nM 32P-DNA, 20 mM Tris-HCl pH 7.5, 0.1 mM EDTA, 0.2 mM DTT, 10% glycerol, 40 mg/ml BSA (so in the source), 5 min at 30 C, 0.7% native agarose in 0.5x TBE; GST pull-down: 40 mM Tris-HCl pH 7.5, 100 mM NaCl, 0.1 mM EDTA, 10% glycerol, 0.1% Triton X-100, 1 mM DTT, 0.1 mg/ml BSA, 25 C; settings: protein: recombinant, (nickel column purification), label: 32P
[5] = target: T1, Dpb11 wild-type; experiment: EMSA; 320 nM required to bind more than half; EMSA: 1 nM 32P-DNA, 20 mM Tris-HCl pH 7.5, 0.1 mM EDTA, 0.2 mM DTT, 10% glycerol, 40 mg/ml BSA (so in the source), 5 min at 30 C, 0.7% native agarose in 0.5x TBE; GST pull-down: 40 mM Tris-HCl pH 7.5, 100 mM NaCl, 0.1 mM EDTA, 10% glycerol, 0.1% Triton X-100, 1 mM DTT, 0.1 mg/ml BSA, 25 C; settings: protein: recombinant; (nickel column purification); label: 32P; blunt
[6] = bubble: 31 bp and 22 bp duplexes flanking T80/T80 loop
[7] = fork 1:2, 31 bp duplex with two T80 arms

Sequence of TopBP1 full-length (Q92547 whole entry): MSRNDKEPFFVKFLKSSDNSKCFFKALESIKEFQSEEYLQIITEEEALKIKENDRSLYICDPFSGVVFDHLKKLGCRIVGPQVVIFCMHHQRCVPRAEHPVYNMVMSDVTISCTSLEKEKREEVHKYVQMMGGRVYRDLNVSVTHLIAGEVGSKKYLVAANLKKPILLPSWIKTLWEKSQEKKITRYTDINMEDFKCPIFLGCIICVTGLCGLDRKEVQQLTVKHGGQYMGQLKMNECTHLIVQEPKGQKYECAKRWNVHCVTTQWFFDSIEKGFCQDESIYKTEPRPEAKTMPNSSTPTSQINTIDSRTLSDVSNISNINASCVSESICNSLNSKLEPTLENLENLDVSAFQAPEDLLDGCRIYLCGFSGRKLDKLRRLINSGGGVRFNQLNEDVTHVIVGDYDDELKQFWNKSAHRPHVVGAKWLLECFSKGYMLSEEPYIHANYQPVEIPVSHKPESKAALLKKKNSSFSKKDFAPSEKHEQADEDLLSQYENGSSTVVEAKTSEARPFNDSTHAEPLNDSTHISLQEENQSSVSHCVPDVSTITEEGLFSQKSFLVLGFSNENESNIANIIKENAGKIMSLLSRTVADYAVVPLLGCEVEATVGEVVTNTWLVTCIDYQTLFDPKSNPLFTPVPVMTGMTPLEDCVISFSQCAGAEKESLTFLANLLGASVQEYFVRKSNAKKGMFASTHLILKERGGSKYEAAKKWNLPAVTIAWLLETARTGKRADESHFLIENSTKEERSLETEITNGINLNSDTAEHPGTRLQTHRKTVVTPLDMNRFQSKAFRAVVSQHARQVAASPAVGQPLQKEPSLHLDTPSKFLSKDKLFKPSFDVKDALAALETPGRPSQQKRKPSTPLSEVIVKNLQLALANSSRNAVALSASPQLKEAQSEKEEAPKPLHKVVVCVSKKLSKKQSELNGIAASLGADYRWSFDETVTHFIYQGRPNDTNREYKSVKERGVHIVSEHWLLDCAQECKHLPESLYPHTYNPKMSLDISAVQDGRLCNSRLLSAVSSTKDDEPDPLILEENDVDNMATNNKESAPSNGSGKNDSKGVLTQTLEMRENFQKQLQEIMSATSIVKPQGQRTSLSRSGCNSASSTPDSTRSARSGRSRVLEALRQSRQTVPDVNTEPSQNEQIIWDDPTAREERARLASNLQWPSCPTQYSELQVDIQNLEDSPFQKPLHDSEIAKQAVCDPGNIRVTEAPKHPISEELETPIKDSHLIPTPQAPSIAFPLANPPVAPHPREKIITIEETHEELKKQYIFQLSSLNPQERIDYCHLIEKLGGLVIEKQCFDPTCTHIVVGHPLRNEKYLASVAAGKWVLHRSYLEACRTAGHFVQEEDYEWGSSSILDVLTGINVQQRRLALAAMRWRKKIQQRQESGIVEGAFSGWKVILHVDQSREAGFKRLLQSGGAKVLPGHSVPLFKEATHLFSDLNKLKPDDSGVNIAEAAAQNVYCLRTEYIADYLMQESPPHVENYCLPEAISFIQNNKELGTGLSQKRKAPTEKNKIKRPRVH

B1: bubble DNA (structured_DNA)
DNA 1: ATGTCCTAGCAAGCCAGAATTCGGCAGCGTCTTTTTTTTTTTTTTTTTTTTTTTTTTTTTTTTTTTTTTTTTTTTTTTTTTTTTTTTTTTTTTTTTTTTTTTTTTTTTTTTCCACGTCGGCGTCGCCACGAGC
DNA 2: GCTCGTGGCGACGCCGACGTGGTTTTTTTTTTTTTTTTTTTTTTTTTTTTTTTTTTTTTTTTTTTTTTTTTTTTTTTTTTTTTTTTTTTTTTTTTTTTTTTTGACGCTGCCGAATTCTGGCTTGCTAGGACAT
With B1 the “apparent K (half saturation)” value [1, 6] was roughly 20 nM and the “apparent K (half saturation)” value [2, 6] was less than 20 nM.

B2: fork DNA (structured_DNA)
DNA 1: ATGTCCTAGCAAGCCAGAATTCGGCAGCGTCTTTTTTTTTTTTTTTTTTTTTTTTTTTTTTTTTTTTTTTTTTTTTTTTTTTTTTTTTTTTTTTTTTTTTTTTTTTTTTTT
DNA 2: TTTTTTTTTTTTTTTTTTTTTTTTTTTTTTTTTTTTTTTTTTTTTTTTTTTTTTTTTTTTTTTTTTTTTTTTTTTTTTTTGACGCTGCCGAATTCTGGCTTGCTAGGACAT
In the case of B2, the “apparent K (half saturation)” value [1, 7] is reported as roughly 20 nM and the “apparent K (half saturation)” value [2, 7] is reported as less than 20 nM.

B3: ssDNA (dT80) (ssDNA)
DNA: TTTTTTTTTTTTTTTTTTTTTTTTTTTTTTTTTTTTTTTTTTTTTTTTTTTTTTTTTTTTTTTTTTTTTTTTTTTTTTTT
B3 was tested, and the “apparent K (half saturation)” value [3] was less than 40 nM.

B4: 3'-tailed DNA (mixed)
DNA 1: GACGCTGCCGAATTCTGGCTTGCTAGGACAT
DNA 2: ATGTCCTAGCAAGCCAGAATTCGGCAGCGTCTTTTTTTTTTTTTTTTTTTTTTTTTTTTTTTTTTTTTTTTTTTTTTTTTTTTTTTTTTTTTTTTTTTTTTTTTTTTTTTT
For B4, the “apparent K (half saturation)” value ([4]; 3' overhang 80 nt (T)) was roughly 80 nM and the “apparent K (half saturation)” value ([1]; 3' overhang 80 nt (T)) was roughly 20 nM.

B5: 5'-tailed DNA (mixed)
DNA 1: ATGTCCTAGCAAGCCAGAATTCGGCAGCGTC
DNA 2: TTTTTTTTTTTTTTTTTTTTTTTTTTTTTTTTTTTTTTTTTTTTTTTTTTTTTTTTTTTTTTTTTTTTTTTTTTTTTTTTGACGCTGCCGAATTCTGGCTTGCTAGGACAT
B5 was tested, and the “apparent K (half saturation)” value ([4]; 5' overhang 80 nt (T)) was roughly 80 nM and the “apparent K (half saturation)” value ([1]; 5' overhang 80 nt (T)) was roughly 20 nM.

B6: blunt dsDNA (dsDNA)
DNA 1: ATGTCCTAGCAAGCCAGAATTCGGCAGCGTC
DNA 2: GACGCTGCCGAATTCTGGCTTGCTAGGACAT
For B6, the “apparent K (half saturation)” value [5] was roughly 320 nM.
